In experiment [1] the target is YU2gp140:gpD fusion protein (HIV-1 isolate YU2 | bacteriophage T4 | bacteriophage lambda). The experiment can be described thus: SEC. On the technique in general: Size exclusion chromatography separates by hydrodynamic size, large species first.
Experiment [2] deals with YU2gp140 (cleavage-deficient, trimeric HIV-1 Env gp140 with T4 fibritin trimerization motif) (HIV-1 isolate YU2 | bacteriophage T4). Briefly: SEC.

The results in this text go back to PMC3062207.

Usually stoichiometry N stands for the number of molecules, sites or subunits per partner or assembly.

On to YU2gp140:gpD fusion protein, for which, in experiment [1], the stoichiometry N amounted to 3.

Substance “YU2gp140 (cleavage-deficient, trimeric HIV-1 Env gp140 with T4 fibritin trimerization motif)” gave a stoichiometry N in experiment [2] of 3.
